This is an account of results in patent US20040229237.

This series concerns mouse MIST (Mast Cell-specific Immunoreceptor Signal Transducer).

Lyn kinase: the “tyrosine phosphorylation of MIST” value is given as “MIST was evidently phosphorylated by Lyn kinase among tyrosine kinases present in the mast cell”.
